Common to all, as to assay: SPR; KD relative to WT C2;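 further: biacore SPR at 37 °C, anti-C2 mAbs captured on an anti-human IgG chip, alanine or serine C2 surface mutants tested, KD from 1:1 fit compared with wild-type C2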
On the technique in general: Surface plasmon resonance follows binding to a sensor surface in real time, without labels.

Test [1] deals with T1, human C2 E686A (human, UniProt P06681 21-752).
T1 sequence: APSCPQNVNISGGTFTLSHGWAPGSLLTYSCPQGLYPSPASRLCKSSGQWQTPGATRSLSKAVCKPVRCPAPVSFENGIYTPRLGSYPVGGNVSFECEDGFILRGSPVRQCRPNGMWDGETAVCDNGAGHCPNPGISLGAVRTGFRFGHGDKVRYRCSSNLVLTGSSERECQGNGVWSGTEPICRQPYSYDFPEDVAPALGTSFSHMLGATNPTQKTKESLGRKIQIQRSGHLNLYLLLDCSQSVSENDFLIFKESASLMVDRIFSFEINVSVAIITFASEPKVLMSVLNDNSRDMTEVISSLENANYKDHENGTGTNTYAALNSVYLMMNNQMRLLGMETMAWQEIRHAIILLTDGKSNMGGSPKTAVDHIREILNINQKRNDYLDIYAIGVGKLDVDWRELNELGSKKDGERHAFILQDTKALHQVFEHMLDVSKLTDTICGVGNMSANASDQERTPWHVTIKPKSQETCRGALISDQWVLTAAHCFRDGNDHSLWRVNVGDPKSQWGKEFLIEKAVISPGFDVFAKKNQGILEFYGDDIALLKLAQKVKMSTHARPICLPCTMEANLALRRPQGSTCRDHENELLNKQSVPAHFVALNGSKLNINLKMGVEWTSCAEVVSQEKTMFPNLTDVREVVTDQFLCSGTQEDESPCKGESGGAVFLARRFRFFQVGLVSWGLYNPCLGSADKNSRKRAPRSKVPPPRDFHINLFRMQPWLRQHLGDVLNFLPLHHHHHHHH

For test [2], the target named is T2, human C2 A326S (human, UniProt P06681 21-752).
T2 sequence: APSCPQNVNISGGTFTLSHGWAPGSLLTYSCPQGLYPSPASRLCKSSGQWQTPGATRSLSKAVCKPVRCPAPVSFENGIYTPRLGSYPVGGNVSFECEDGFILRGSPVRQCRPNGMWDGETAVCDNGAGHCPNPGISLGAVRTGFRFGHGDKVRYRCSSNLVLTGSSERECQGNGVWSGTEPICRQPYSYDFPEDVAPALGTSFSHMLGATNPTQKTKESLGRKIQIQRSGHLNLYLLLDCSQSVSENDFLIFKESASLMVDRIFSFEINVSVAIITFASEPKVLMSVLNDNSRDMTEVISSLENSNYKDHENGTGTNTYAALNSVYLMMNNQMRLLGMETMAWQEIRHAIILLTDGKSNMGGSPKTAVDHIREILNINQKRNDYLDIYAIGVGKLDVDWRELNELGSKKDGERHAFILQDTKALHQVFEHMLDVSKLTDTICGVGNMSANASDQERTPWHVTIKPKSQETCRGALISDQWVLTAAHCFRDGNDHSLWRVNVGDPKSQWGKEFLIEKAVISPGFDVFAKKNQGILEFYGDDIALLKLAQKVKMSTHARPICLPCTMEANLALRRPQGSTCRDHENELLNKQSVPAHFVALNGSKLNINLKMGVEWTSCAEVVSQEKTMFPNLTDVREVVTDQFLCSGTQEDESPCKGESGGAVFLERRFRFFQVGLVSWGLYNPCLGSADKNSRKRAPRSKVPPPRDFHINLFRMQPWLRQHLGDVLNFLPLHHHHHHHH

Test [3] addresses T3, human C2 E433A (human, UniProt P06681 21-752).
T3 sequence: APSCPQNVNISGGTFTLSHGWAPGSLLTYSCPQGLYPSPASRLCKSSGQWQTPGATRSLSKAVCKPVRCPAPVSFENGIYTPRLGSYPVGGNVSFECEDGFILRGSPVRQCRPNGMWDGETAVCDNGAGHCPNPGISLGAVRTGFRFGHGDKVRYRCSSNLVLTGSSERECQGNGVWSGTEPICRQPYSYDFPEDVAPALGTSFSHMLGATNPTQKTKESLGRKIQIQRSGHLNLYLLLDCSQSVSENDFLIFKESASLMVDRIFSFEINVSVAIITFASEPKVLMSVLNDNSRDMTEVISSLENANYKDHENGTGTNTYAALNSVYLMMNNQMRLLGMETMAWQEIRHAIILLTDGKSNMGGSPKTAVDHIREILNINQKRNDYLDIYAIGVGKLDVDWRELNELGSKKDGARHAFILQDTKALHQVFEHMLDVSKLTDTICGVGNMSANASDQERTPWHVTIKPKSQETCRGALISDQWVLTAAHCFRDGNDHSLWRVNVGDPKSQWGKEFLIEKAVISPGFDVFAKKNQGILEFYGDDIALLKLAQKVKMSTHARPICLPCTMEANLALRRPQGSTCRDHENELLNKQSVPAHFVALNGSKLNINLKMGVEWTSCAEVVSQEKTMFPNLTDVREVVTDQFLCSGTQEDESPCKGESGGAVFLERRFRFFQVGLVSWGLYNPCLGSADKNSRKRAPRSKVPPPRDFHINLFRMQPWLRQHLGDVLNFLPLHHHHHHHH

The target of test [4] is T4, human C2 H446A (human, UniProt P06681 21-752).
T4 sequence: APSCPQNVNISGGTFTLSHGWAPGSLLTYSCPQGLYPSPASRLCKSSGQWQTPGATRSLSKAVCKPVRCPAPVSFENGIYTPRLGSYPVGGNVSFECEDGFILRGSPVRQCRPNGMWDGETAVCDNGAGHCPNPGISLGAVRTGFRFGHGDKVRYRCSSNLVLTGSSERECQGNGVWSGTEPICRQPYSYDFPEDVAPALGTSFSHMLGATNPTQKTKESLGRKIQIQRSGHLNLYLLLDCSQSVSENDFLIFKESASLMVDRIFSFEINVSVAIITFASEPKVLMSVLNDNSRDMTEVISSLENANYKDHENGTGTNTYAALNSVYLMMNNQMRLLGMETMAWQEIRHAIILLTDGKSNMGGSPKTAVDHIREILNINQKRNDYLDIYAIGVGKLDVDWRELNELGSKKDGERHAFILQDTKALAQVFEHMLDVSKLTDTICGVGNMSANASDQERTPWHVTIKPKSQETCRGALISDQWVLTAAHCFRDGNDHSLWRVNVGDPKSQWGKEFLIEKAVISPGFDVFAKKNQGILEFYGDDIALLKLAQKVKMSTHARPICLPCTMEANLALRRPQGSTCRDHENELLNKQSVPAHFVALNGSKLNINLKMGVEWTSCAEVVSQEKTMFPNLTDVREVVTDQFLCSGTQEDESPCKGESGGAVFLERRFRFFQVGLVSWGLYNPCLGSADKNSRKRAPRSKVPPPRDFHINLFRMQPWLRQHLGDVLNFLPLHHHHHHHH

B1: RF16-214 (antibody, V domains shown)
VH: EVQLLESGGGLVQPGGSLRLSCAASGFTFSWYQMMWVRQAPGKGLEWVSRIYPSGGGTAYADSVKGRFTISRDNSKNTLYLQMNSLRAEDTAVYYCARDAGYGDNWGQGTLVTVSS
VL: QSALTQPPSVSVSPGQTASITCSGDKLGEKYASWYQQKAGQSPVMVIYQDRKRPSGIPERFSGSNSGNTATLTISGTQAMDEADYYCQAWDTRAVVFGGGTKLTVLG
On to B1, for which the Fold diff in test [1] turned out to be 4 fold; in test [2] it was 1 fold; in test [3] it was 1 fold; in test [4], 5 fold.

The values are drawn from patent publication US20220332804A1 (CSL INNOVATION, published 2022).
